Molecular target: T1, HLA-A*02:01 MHC Class I complex (biotinylated) (human, biotinylated)
T1 construct: The MHC molecule as the partner of the peptide in the groove; It was captured on streptavidin DynaBeads; also called pHLA; pMHC
Test: pMHC on streptavidin beads held in T cell culture media at 37 C for 0-48 h; W6/32-APC MFI by flow cytometry fitted to an exponential decay
Protocol: To wells of a 96-well, round-bottom microplate, 0.2 mL of T Cell Culture Media (Advanced RPMI, 10% Human AB Serum, 1 mM GlutaMax) was added and equilibrated to 37° C. in a standard tissue culture incubator. To three wells each, four microliters of each pHLA-beads was added to a well. The process of adding beads to wells was repeated at time intervals resulting in beads that were held in the media at 37° C. for 48, 32, 24, 16, 8, 4, 2, and 1 hr. The plate was centrifuged at 400 g for 5 minutes, and the media removed by flicking the plate. A sample of beads held at 4° C. for the duration of the time course was then added to three wells to create the 0 hr time point.
An APC-conjugated, conformationally sensitive antibody which only recognizes pMHC molecules in the folded, complex conformation (Clone W6/32, Biolegend) was then added to each well. The antibody was diluted 50-fold from the manufacturer stock into Assay Buffer, and 0.05 mL of antibody mixture was added to each well. […]
Antibody binding to the beads was then detected on a FACSCelesta with High-Throughput Sampler (BD Biosciences). […] Approximately 25,000 bead events were recorded for each sample. The Median Fluorescence Intensity (MFI) in the APC channel for the pHLA-beads in each sample was then recorded. […] The half-lives for the pHLA complexes were then calculated from the fitted decay constant.

B1: TCL1-derived peptide antigen SLLPIMWQLY (SEQ ID NO: 6) (peptide)
peptide: SLLPIMWQLY
notes: Synthetic 10-mer peptide; also called Non-Immunogenic TCL1-derived peptide
B1 showed a half-life of roughly 0.5 h.

B2: SLC45A2-derived peptide antigen SLYSYFQKV (SEQ ID NO: 5) (peptide)
peptide: SLYSYFQKV
notes: Synthetic 9-mer peptide, dissolved in DMSO and diluted in PBS for the exchange reaction; also called Immunogenic SLC45A2-derived peptide; SLC45A2 antigen
B2 showed a half-life of roughly 17 h.

— patent US20240342704A1 (BERKELEY LIGHTS, published 2024)
